Reference: patent publication US20210284709A1 (JUNO THERAPEUTICS, published 2021)
Substitutions are numbered along the chain they refer to.

B1: TCR 21 (codon-optimized, cysteine-modified) (TCR, V domains shown)
V domain 1: AQKITQTQPGMFVQEKEAVTLDCTYDTSDQSYGLFWYKQPSSGEMIFLIYQGSYDEQNATEGRYSLNFQKARKSANLVISASQLGDSAMYFCAMREGRVTGGGNKLTFGTGTQLKVEL
V domain 2: NAGVTQTPKFQVLKTGQSMTLQCAQDMNHNSMYWYRQDPGMGLRLIYYSASEGTTDKGEVPNGYNVSRLNKREFSLRLESAAPSQTSVYFCASRPWGNQNTEAFFGQGTRLTVVE
B2: TCR 24 (codon-optimized, cysteine-modified) (TCR, V domains shown)
V domain 1: AQKITQTQPGMFVQEKEAVTLDCTYDTSDQSYGLFWYKQPSSGEMIFLIYQGSYDEQNATEGRYSLNFQKARKSANLVISASQLGDSAMYFCAMREGRGDSWGKLQFGAGTQVVVTP
V domain 2: DVKVTQSSRYLVKRTGEKVFLECVQDMDHENMFWYRQDPGLGLRLIYFSYDVKMKEKGDIPEGYSVSREKKERFSLILESASTNQTSMYLCASSPFGRGSYEQYFGPGTRLTVTE
B3: modified version of TCR 14 (TCR)
TCR alpha: ILNVEQSPQSLHVQEGDSTNFTCSFPSSNFYALHWYRWETAKSPEALFVMTLNGDEKKKGRISATLNTKEGYSYLYIKGSQPEDSATYLCASQTGANNLFFGTGTRLTVIPYIQNPDPAVYQLRDSKSSDKSVCLFTDFDSQTNVSQSKDSDVYITDKCVLDMRSMDFKSNSAVAWSNKSDFACANAFNNSIIPEDTFFPSPESSCDVKLVEKSFETDTNLNFQNLSVIGFRILLLKVAGFNLLMTLRLWSS
TCR beta: DVKVTQSSRYLVKRTGEKVFLECVQDMDHENMFWYRQDPGLGLRLIYFSYDVKMKEKGDIPEGYSVSREKKERFSLILESASTNQTSMYLCASTFWGQRRTEAFFGQGTRLTVVEDLNKVFPPEVAVFEPSEAEISHTQKATLVCLATGFFPDHVELSWWVNGKEVHSGVCTDPQPLKEQPALNDSRYCLSSRLRVSATFWQNPRNHFRCQVQFYGLSENDEWTQDRAKPVTQIVSAEAWGRADCGFTSVSYQQGVLSATILYEILLGKATLYAVLVSALVLMAMVKRKDF
B4: TCR 17 (codon-optimized, cysteine-modified) (TCR, V domains shown)
V domain 1: AQKITQTQPGMFVQEKEAVTLDCTYDTSDPSYGLFWYKQPSSGEMIFLIYQGSYDQQNATEGRYSLNFQKARKSANLVISASQLGDSAMYFCAMREGRGDKIIFGKGTRLHILP
V domain 2: DVKVTQSSRYLVKRTGEKVFLECVQDMDHENMFWYRQDPGLGLRLIYFSYDVKMKEKGDIPEGYSVSREKKERFSLILESASTNQTSMYLCASSLWGRSNQPQHFGDGTRLSILE
B5: TCR 23 (codon-optimized, cysteine-modified) (TCR, V domains shown)
V domain 1: AQKITQTQPGMFVQEKEAVTLDCTYDTSDQSYGLFWYKQPSSGEMIFLIYQGSYDEQNATEGRYSLNFQKARKSANLVISASQLGDSAMYFCAMSPPGGSARQLTFGSGTQLTVLP
V domain 2: B4 V domain 2 with L95P, R98Q
B6: TCR 18 (codon-optimized, cysteine-modified) (TCR, V domains shown)
V domain 1: KQEVTQIPAALSVPEGENLVLNCSFTDSAIYNLQWFRQDPGKGLTSLLLIQSSQREQTSGRLNASLDKSSGRSTLYIAASQPGDSATYLCAEGNAGGTSYGKLTFGQGTILTVHP
V domain 2: B4 V domain 2 with L95F, Q101S, Q103L, D107N, S112T, I113V, L114T
B7: TCR 22 (codon-optimized, cysteine-modified) (TCR, V domains shown)
V domain 1: GQNIDQPTEMTATEGAIVQINCTYQTSGFNGLFWYQQHAGEAPTFLSYNVLDGLEEKGRFSSFLSRSKGYSYLLLKELQMKDSASYLCAVRARMDSNYQLIWGAGTKLIIKP
V domain 2: DAGVTQSPTHLIKTRGQHVTLRCSPISGHKSVSWYQQVLGQGPQFIFQYYEKEERGRGNFPDRFSARQFPNYSSELNVNALLLGDSALYLCASSRTENYGYTFGSGTRLTVVE
B8: TCR 27 (codon-optimized, cysteine-modified) (TCR, V domains shown)
V domain 1: DAKTTQPNSMESNEEEPVHLPCNHSTISGTDYIHWYRQLPSQGPEYVIHGLTSNVNNRMASLAIAEDRKSSTLILHRATLRDAAVYYCILRVPPQSGGYQKVTFGTGTKLQVIP
V domain 2: NAGVTQTPKFQVLKTGQSMTLQCAQDMNHNSMYWYRQDPGMGLRLIYYSASEGTTDKGEVPNGYNVSRLNKREFSLRLESAAPSQTSVYFCASSEFGSLNEKLFFGSGTQLSVLE
B9: modified version of TCR 13 (TCR)
TCR alpha: AQSVTQLDSHVSVSEGTPVLLRCNYSSSYSPSLFWYVQHPNKGLQLLLKYTSAATLVKGINGFEAEFKKSETSFHLTKPSAHMSDAAEYFCVVRGGKLIFGQGTELSVKPNIQNPDPAVYQLRDSKSSDKSVCLFTDFDSQTNVSQSKDSDVYITDKCVLDMRSMDFKSNSAVAWSNKSDFACANAFNNSIIPEDTFFPSPESSCDVKLVEKSFETDTNLNFQNLSVIGFRILLLKVAGFNLLMTLRLWSS
TCR beta: GAGVSQSPRYKVAKRGQDVALRCDPISGHVSLFWYQQALGQGPEFLTYFQNEAQLDKSGLPSDRFFAERPEGSVSTLKIQRTQQEDSAVYLCASSPTGTERELFFGEGSRLTVLEDLKNVFPPEVAVFEPSEAEISHTQKATLVCLATGFYPDHVELSWWVNGKEVHSGVCTDPQPLKEQPALNDSRYCLSSRLRVSATFWQNPRNHFRCQVQFYGLSENDEWTQDRAKPVTQIVSAEAWGRADCGFTSESYQQGVLSATILYEILLGKATLYAVLVSALVLMAMVKRKDSRG
B10: TCR 30 (codon-optimized, cysteine-modified) (TCR, V domains shown)
V domain 1: DAKTTQPPSMDCAEGRAANLPCNHSTISGNEYVYWYRQIHSQGPQYIIHGLKNNETNEMASLIITEDRKSSTLILPHATLRDTAVYYCIVRGTSVLQGNEKLTFGTGTRLTIIP
V domain 2: EPEVTQTPSHQVTQMGQEVILRCVPISNHLYFYWYRQILGQKVEFLVSFYNNEISEKSEIFDDQFSVERPDGSNFTLKIRSTKLEDSAMYFCASSRQPSSGNTIYFGEGSWLTVVE
B11: TCR 28 (codon-optimized, cysteine-modified) (TCR, V domains shown)
V domain 1: RKEVEQDPGPFNVPEGATVAFNCTYSNSASQSFFWYRQDCRKEPKLLMSVYSSGNEDGRFTAQLNRASQYISLLIRDSKLSDSATYLCVVRGGGTSYGKLTFGQGTILTVHP
V domain 2: DVKVTQSSRYLVKRTGEKVFLECVQDMDHENMFWYRQDPGLGLRLIYFSYDVKMKEKGDIPEGYSVSREKKERFSLILESASTNQTSMYLCASSLWGRSSGNTIYFGEGSWLTVVE
B12: TCR 29 (codon-optimized, cysteine-modified) (TCR, V domains shown)
V domain 1: AQKITQTQPGMFVQEKEAVTLDCTYDTSDQSYGLFWYKQPSSGEMIFLIYQGSYDEQNATEGRYSLNFQKARKSANLVISASQLGDSAMYFCAMRLNTGTASKLTFGTGTRLQVTL
V domain 2: DGGITQSPKYLFRKEGQNVTLSCEQNLNHDAMYWYRQDPGQGLRLIYYSQIVNDFQKGDIAEGYSVSREKKESFPLTVTSAQKNPTAFYLCASSPWGRATNEQFFGPGTRLTVLE

These binders were tested against T1, HLA-A2/E6(29-38) tetramer (human; HPV 16) (assay: flow cytometry, tetramer + anti-CD8; transfected Jurkat-derived cells, CD8+ cells).
T1 construct: also called E6(29-38) peptide-MHC tetramer; E6 tet
Procedure: (§1) For transfection, the CD4+ and CD4+/CD8+ cell mixtures were transiently transfected with TCR-encoding plasmids and 48 hours after transfection, cells were assessed by flow cytometry for (1) binding of the target peptide in the context of an MHC molecule (HLA:A02:01) by staining with an E6(29-38) peptide- or an E7(11-19) peptide-MHC tetramer reagent, and/or (2) CD8+ independent binding of the target by co-staining the tetramer-labeled cells with an anti-CD8 antibody.
With B1 the “% cells E6 tet+/CD8+ quadrant” value was 51.6% and the “% cells E6 tet+/CD8- quadrant” value was 0.22%.
In the case of B2, the “% cells E6 tet+/CD8+ quadrant” value is reported as 29.1% and the “% cells E6 tet+/CD8- quadrant” value is reported as 0.13%.
For B3, the “% cells E6 tet+/CD8+ quadrant” value was 38.4% and the “% cells E6 tet+/CD8- quadrant” value was 0.04%.
B4 was tested, and the “% cells E6 tet+/CD8+ quadrant” value was 34.7% and the “% cells E6 tet+/CD8- quadrant” value was 0.17%.
For B5, the “% cells E6 tet+/CD8+ quadrant” value was 43.6% and the “% cells E6 tet+/CD8- quadrant” value was 0.18%.
With B6 the “% cells E6 tet+/CD8+ quadrant” value was 50.4% and the “% cells E6 tet+/CD8- quadrant” value was 0.045%.
With B7 the “% cells E6 tet+/CD8+ quadrant” value was 51.2% and the “% cells E6 tet+/CD8- quadrant” value was 0.14%.
In the case of B8, the “% cells E6 tet+/CD8+ quadrant” value is reported as 24.5% and the “% cells E6 tet+/CD8- quadrant” value is reported as 0.02%.
In the case of B9, the “% cells E6 tet+/CD8+ quadrant” value is reported as 38.6% and the “% cells E6 tet+/CD8- quadrant” value is reported as 0.064%.

These binders were tested against T1, HLA-A2/E6(29-38) tetramer (assay: flow cytometry, tetramer + anti-CD8; transfected mix of CD8- and CD8+ Jurkat-derived cells;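 also: CD4+ and CD4+/CD8+ cell mixtures transiently given TCR plasmids, analysed 48 h post-transfection by flow cytometry with E6(29-38)–HLA-A*02:01 tetramer plus anti-CD8 antibody co-stain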).
Procedure: as §1
B1 was tested, and the “% cells E6 tet+/CD8+ quadrant” value was 28.8% and the “% cells E6 tet+/CD8- quadrant” value was 32.7%.
In the case of B2, the “% cells E6 tet+/CD8+ quadrant” value is reported as 55% and the “% cells E6 tet+/CD8- quadrant” value is reported as 23.5%.
B10 was tested, and the “% cells E6 tet+/CD8+ quadrant” value was 31% and the “% cells E6 tet+/CD8- quadrant” value was 0.74%.
In the case of B11, the “% cells E6 tet+/CD8+ quadrant” value is reported as 13.1% and the “% cells E6 tet+/CD8- quadrant” value is reported as 0.15%.
In the case of B4, the “% cells E6 tet+/CD8+ quadrant” value is reported as 36.2% and the “% cells E6 tet+/CD8- quadrant” value is reported as 21.3%.
For B5, the “% cells E6 tet+/CD8+ quadrant” value was 52.5% and the “% cells E6 tet+/CD8- quadrant” value was 22.5%.
With B6 the “% cells E6 tet+/CD8+ quadrant” value was 23.3% and the “% cells E6 tet+/CD8- quadrant” value was 3.61%.
B8 was tested, and the “% cells E6 tet+/CD8+ quadrant” value was 15.8% and the “% cells E6 tet+/CD8- quadrant” value was 3.5%.
With B12 the “% cells E6 tet+/CD8+ quadrant” value was 35.6% and the “% cells E6 tet+/CD8- quadrant” value was 44.5%.
